# Experiment: soluble on expression in E. coli; label from the status in PepcDB or PDB records
row,Sequence,soluble on expression in E. coli
1,MAHHHHHHMGKNETDTDVLTSNVEVGSVLSQCAESRVHECNFYGYRAVCKHRFPKAYRHPALDQRLREQRTVREGRALARCLKNGVLAPTVFAVDRERCAIVMERIDGLTVREIFNHEQGNVAQGKTDVSFLVSFLLRGMGEVVGLLHNADIIHGDLTTSNFMCKRNFLERRLSTENLASNTSSRDSIVVLDFGLVMDKNSAEERAVDLYVLERALKSSHPFLEHVATRLVLEGYHRTVDPQKGSVTMARLEAVRARGRKRSMIG,not soluble
2,MLKVEMLSTGDEVLYGQIVDTNAAWLADFFFHQGLPLSRRNTVGDNLDDLVTILRERSQHADVLIVNGGLGPTSDDLSALAAATAKGEGLVLHEAWLKEMERYFHERGRVMAPSNRKQAELPASAEFINNPVGTACGFAVQLNRCLMFFTPGVPSEFKVMVEHEILPRLRERFSLPQPPVCLRLTTFGRSESDLAQSLDTLQLPPGVTMGYRSSMPIIELKLTGPASEQQAMEKLWLDVKRVAGQSVIFEGTEGLPAQISRELQNRQFSLTLSEQFTGGLLALQLSRAGAPLLACEVIPSQEETLAQTAHWITERRANHFAGLALAVSGFENEHLNFALATPDGTFALRVRFSTTRYSLAIRQEVCAMMALNMLRRWLNGQDIASEHGWIEVVESMTLSV,not soluble
3,MGTETVSFKWEGKKVAQVNGVTAEKVWSVFSDFCNVQEWFPSVDTCYRVQGTDGVPGLIRYCSTTKTKEEGSRWAKEKLVKIDPIGRCLSYEILENNVGFRSYVATVQVTPVDGEDQVSRIEWSFVADPVDGWKKEDLESYVDFCLQHMANKMELNL,soluble
4,MGSDKIHHHHHHMEFPGVKALDDVHFSVKRGEIHALVGANGAGKSTLMKVLAGAYASYEGTILFDGVPLAIDSPNAAKRAGIEIVYQEVDTALVDYLTVAENICLDMLASGQLKGVIRRRRYEEIAERALQKLKASIDVRQRVSELRLAEKQLVLIARALVQESRFLILDEPTAPLSGRETEQLFRIIRELAEKEHLGVIFISHRLQELFEICESISVMRDGKMVSRQLLAGQTKETVVEQMLGRRLQKSSREARPAGAPSLELDRITVAGQLDEISLTVRAGEVIGIAGLVGAGKTELCKTIFGSIPVTSGLMRLAGETRRIRSAYDAVRLGIGLVPEERRKEGILVADPIEQNMTAASLKQFVNRFGFVEKKKERAAANRIVQQLSIKVSDTRQRAAELSGGNQQKVAIGKWLLADASVLVLDEPTKGVDVGAKAEIFQVIDQLAAEQKAVIYASSELDELLAVTDRIYVMYDGQIVFEATTSETTEEQLLWYATGGQQHE,not soluble
5,MAHHHHHHMLRRHFQLFLRRTPLWLADDGSSLFERYTEIENSNERRMSALKACGMFDDEWIATEKVHGANFGIYSIEGEKTIRYAKRSGIMHPTEHFFGYHMLVPQLQQYITVTREMLCDKLQKKLHTVLINGELFGGKYDHPSLQKTRKTVMVAGKPRTISAVQTDSFPQYSPDLHFYAFDIKYKETNEAEYVTLTFDDATELFKRVPGLLYARAIIRGPMSKVAAFDVEHFVTTIPPLVGMGNYPLKGNWAEGLVVKHAKRGTPGFDPKGLTILKFKCTAFQEISTDRRQGPRVDEMESVRRDSISRSGIQLPALESIIHDPVQLEASKFLLDHICENRLNAVLSKIGTDPFEKQEMTPDDLATLLAKDALKDFLKEAEPAIVNTPILTRRDMARYVLFESRQLVCSRWKAILQRQTADVVE,not soluble
6,MSLAQLEHALQHDLQRLAHGGEPWVRPRVHPAGHVYDVVIVGAGQSGLGAAFALQRERVHNVLVIDENPPGQEGPWVTYARMQTLRTPKQITSIDLGVPTLTFRAWWEAQHGAAGWDALDKIPRGTWMDYLRWYRAALRLPVRNATQLVRIEPDAAPGIHRLHLAMGAPLMARKIILATGIQGGGQWQVPEWITQALPAQRYAHTSGPIDYAALAGKRVGILGGGASAFDNACFALDQGVARAEVFVRRAALPRVNPIRHMEQAGIIPRFAALPDADKYRMMASFFGRNQPPTNDTFQRACAHAGFALHLDAPWLGVEEHNDVVVVRTPQGEHRFDFLAIATGLVTDPRLRPELAALSGRIACWADRYQAPPGQANPVLDAHPYLGPGFELLPRTPDDAAAVDGLFAFNYSALINHGLSAAALSGLKVALPRLARAVADQLFLDDRQAMVEAYLGYDQAEFVGQWPQPTQAVALEHHHHHH,soluble
7,KNYDLIFGDSNTKKYYAQFAKEHKTHLYHQILQSNDEQFRFVENDQTVTSQTPFKS,not soluble
